The record followed here is PMC11392804.

Data set [1] concerns the target StayGold (Cytaeis uchidae (parent GFP)). Put plainly: SEC; Superdex 75 Increase 10/300 GL, ~2 mg ml^−1 (76 μM) protein loaded via 100 μl loop, 0.8 ml min^−1, 150 mM NaCl, 20 mM HEPES pH 7.2; monomer and dimer percentages from integrated peak areas; dimer to monomers. On the technique in general: In gel filtration, larger molecules generally elute earlier.
Test in data set [2]: as above

As a reminder, the stoichiometry N is a count of units in the complex or per binding partner.

StayGold: the stoichiometry N in data set [1] was found to be 2. Moreover, the “percent dimer (SEC peak areas)” value in data set [2] is listed as “the original StayGold is ~98% dimer”. In the case of mStayGold (StayGold E138D), the “percent monomer (SEC peak areas)” value in data set [2] is on record as “the E138D mutant is more than 99% monomer”.
